Values joined by “and” are separate entries in the source; they are usually repeats but may differ in a detail not shown here. Equal values may be shown once.
Experiments:
[1] = system: BT474 human breast carcinoma xenografts; test: Tumour penetration in BT474 xenografts, immunohistochemistry 2 hrs post dose; assay type: in vivo, mouse; conditions: 5 mg/kg single i.v. dose, SCID mice, BT474, payload detection (total ADC)
Description: (§1) Mice. […] The animals were fed ad libitum water (reverse osmosis, 1 ppm Cl), and NIH 31 Modified and Irradiated Lab Diet® consisting of 18.0% crude protein, 5.0% crude fat, and 5.0% crude fiber. The mice were housed on irradiated Enrich-o'cobs™ Laboratory Animal Bedding in static microisolators on a 12-hour light cycle at 20-22° C. (68-72° F.) and 40-60% humidity. Charles River Discovery Services North Carolina (CR Discovery Services, who carried out this contracted R&D) specifically complies with the recommendations of the Guide for Care and Use of Laboratory Animals with respect to restraint, husbandry, surgical procedures, feed and fluid regulation, and veterinary care. The animal care and use program at CR Discovery Services is accredited by the Association for Assessment and Accreditation of Laboratory Animal Care International (AAALAC), which assures compliance with accepted standards for the care and use of laboratory animals.
Therapeutic (test) Agents. […] All dosing solutions were stored at 4° C. until dosed. […] Treatment.

[2] = Plasma pharmacokinetics in Sprague-Dawley rats (ELISA); assay type: in vivo, rat; conditions: for Bioavailability (blood exposure, AUC, 24 hrs): mean AUC in anti-payload and anti-protein detection; for Elimination half-life (hrs) Total Antibody: plasma ELISA
Description: Rats. Male Sprague-Dawley rats (sourced from Charles River, UK) were group housed in a temperature and light controlled facility on a 12 hour light/dark cycle with food and water available ad libitum. Rats selected for study inclusion were individually housed until completion of the study. All animals were subjected to health monitoring in accordance with the guidelines by the onsite home office registered veterinarian. All animal experimentation was covered under the UK Animals (Scientific Procedures) Act (1986) and EU directive 86/609/EEC. All such work was monitored by regular inspections of procedures and facilities by the on-site Veterinarian and UK Home Office inspectors. The study design required the surgical implantation of catheters into the jugular of male Sprague-Dawley rats.
Rats were anaesthetised using the inhalation anaesthetic isoflurane and placed in dorsal recumbency. The right jugular vein was exposed and a loose ligature was placed caudally and the cranial end of vein was ligated. A small incision was made between the ligatures into which the catheter (polyethylene 50 tubing) was inserted. The catheter was secured in place by tying the loose ligature around the catheterised vessel. A small incision was made in the scapular region to serve as the exit site of the catheter. The catheter was subcutaneously tunneled and exteriorised through the scapular incision. Patency of the catheter was tested, and the catheter was filled with a locking solution (heparinised saline) and sealed with a stainless steel pin. Post-operative monitoring of animals was performed according to Home Office good practice guidelines. Intravenous dosing was via the tail vein.
(§2) Therapeutic (test) Agents. All test agents were supplied as ready-to-dose dosing solutions. All dosing solutions were stored at 4° C. until dosed. All treatments were administered in a dosing volume scaled to the body weights of the individual animals to obtain the dosing concentration described in the treatment tables.
Treatment (rats). On Day 1 of the study, rats were divided into groups of three animals (per test agent being evaluated), and dosing was initiated according to the treatment plan summarized in the tables below
Sampling (rats). Serial venous blood samples (approx. 0.1-0.2 ml) were collected via the exteriorised jugular vein catheter at specified time points (0.5 to 72 hrs post dosing) and placed in heparinised containers. Prior to taking the blood samples the catheter was evacuated of heparinised saline to prevent dilution of the blood sample. Following each blood sample the volume of blood removed is replaced with an equal volume of heparinised saline via the catheter and sealed. Blood samples were centrifuged (5 minutes, 16,100 g, 4° C.) to separate the plasma. Plasma samples were transferred to fresh containers and promptly frozen and stored at −20° C. until used for analysis.
(§3) Quantification of test agents in plasma. An ELISA was carried out as described in Example 31 The detecting antibodies were (a) Anti-T7 tag to detect the scFv (total antibody), (b) Anti-Human Fab-specific to detect trastuzumab (total antibody), (c) Anti-MMAF (Concortis), Anti-MMAE (Concortis), anti-DM1
(§4) (Concortis) and anti-cemadotin (in-house mouse monoclonal antibody, Example 33 that also recognised P5C5 and AuristatinF), total ADC. The reference test agents were used to construct a calibration curve for which the plasma samples were compared to, in order to quantify the amount present. The concentration was plotted against time (average of three animals with standard error) and fitted to a 2-phase decay curve using GraphPad Prism to derive kinetic parameters.

HER2 [3] = biological target: T1, HER2 (Homo sapiens, UniProt P04626); test: Rat urine analysed on a HER2-Biacore SPR chip; assay type: in vivo; conditions: 10-fold concentrated urine, compared to free scFv samples
Description: (A) A single i.v. dose was injected into male Sprague-Dawley rats at 4 mg/kg. Plasma samples were taken at time points indicated and analysed by ELISA using anti-protein detection (total protein, indicated by solid lines, closed symbols) and where relevant anti-drug detection (total ADC, indicated by dashed lines, open symbols). The SE of the mean of each group and experimental triplicates are shown. ADC scFv (TCT1067)-P5C5 (circles) (n=3) and scFv (TCT1067) (squares) (n=3). (B) 10-fold concentrated urine collected over 24 hours analysed on a HER2-Biacore SPR chip for the scFv (TCT1067)-injected rats, 3 animal samples. The scFv reference is shown. The bulk shifts in the urine samples are due to the concentration of urine components. (C) 10-fold concentrated urine collected over 24 hours analysed on a HER2-Biacore SPR chip for the scFv (TCT1067)-P5C5 conjugate-injected rats, 3 animal samples. The scFv (TCT1067)-P5C5 reference is shown. The bulk shifts in the urine samples are due to the concentration of urine components.
The scFv (TCT1067)-P5C5 conjugate were detected in the plasma via its T7 tag (detecting total antibody) and via the payload (detecting total ADC). […] The urine from the treated animals was collected over 24 hours, concentrated 10-fold in a spin concentrator (MWCO-10 kDa) and dialysed against PBS. These samples, from three rats per group, were analysed on a Biacore SPR chip.

[4] = system: BT474 human breast carcinoma xenografts; test: Tumour growth inhibition or eradication in BT474 xenograft model; assay type: in vivo
Description: as §1, with “care.” for “care. The animal care and use program at CR Discovery Services is accredited by the Association for Assessment and Accreditation of Laboratory Animal Care International (AAALAC), which assures compliance with accepted standards for the care and use of laboratory animals.”
Tumor weight may be estimated with the assumption that 1 mg is equivalent to 1 mm^3 of tumor volume.

[5] = Body weight and tolerability in BT474 xenograft studies; assay type: in vivo, mouse; conditions: BT474 xenograft study
Excerpt: Treatment-Related Side Effects. Test animals were weighed Day 1. Animals were observed frequently for overt signs of any adverse, treatment-related side effects. Individual body weight loss was monitored every other day and any animal whose weight exceeded the limits for acceptable body weight loss was euthanized. Group mean body weight loss also was monitored as per protocol. Acceptable toxicity for the maximum tolerated dose (MTD) was defined as a group mean body weight loss of less than 20% during the test.

[6] = Concentration reached and storage stability of purified conjugates in buffer; assay type: physicochemical; conditions: after purification and concentration
HER2 [7] = biological target: T1, HER2; test: Biacore SPR binding to immobilised HER2; conditions: immobilised HER2
Method in brief: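 HER2 amine-coupled on CM5 or CM3 chips, Biacore T200. Free antibody (typically 5-0.6 μg/ml) and conjugates (20-2.5 μg/ml) injected 160 s at 30 μl/min, 900 s dissociation (3600 s at highest concentration); regeneration with 8M MgCl2. Kinetics compared with unmodified scFv.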

[8] = Plasma pharmacokinetics in BALB/c mice (ELISA, total antibody and total ADC); assay type: in vivo, mouse; conditions: for Bioavailability (blood exposure, AUC, 24 hrs) / Elimination half-life (hrs) Total Antibody: mice; for Bioavailability (blood exposure, AUC, 24 hrs): mean AUC in anti-payload and anti-protein detection; for Elimination half-life (hrs) Total Antibody: plasma ELISA
Description: Mice. Female BALB/c mice (BALB/cAnNCrl, Charles River) were eight weeks old with body weights ranging from 15.9 to 21.9 grams at the beginning of the study. The animals were fed ad libitum water (reverse osmosis, 1 ppm Cl) and NIH 31 Modified and Irradiated Lab Diet® consisting of 18.0% crude protein, 5.0% crude fat, and 5.0% crude fiber. The mice were housed on irradiated Enrich-o'cobs™ Laboratory Animal Bedding in static microisolators on a 12-hour light cycle at 20-22° C. (68-72° F.) and at 40-60% humidity. Charles River Discovery Services North Carolina (CR Discovery Services, who carried out this contracted R&D) specifically complies with the recommendations of the Guide for Care and Use of Laboratory Animals with respect to restraint, husbandry, surgical procedures, feed and fluid regulation, and veterinary care. The Animal Care and Use program at CR Discovery Services is accredited by the Association for Assessment and Accreditation of Laboratory Animal Care International, which assures compliance with accepted standards for the care and use of laboratory animals.
as §2
Treatment (mice). On Day 1 of the study, mice were divided into groups each consisting of eighteen mice (per test agent being evaluated), and dosing was initiated according to the treatment plan summarized in the treatment tables. All doses were administered intravenously (i.v.) by tail vein injection as described in the tables below.
Endpoint. The study endpoint occurred after the last sampling point, typically on Day 2 or 4, twenty-four or seventy-two hours post dose.
Sampling (mice). Blood (full blood volume) was collected from three animals per treatment group per timepoint. Samples were collected from all animals via terminal cardiac puncture under isoflurane anesthesia. Once collected, blood samples were collected into collection tubes containing lithium heparin or K2EDTA as anticoagulants and were processed for plasma at each timepoint. Each plasma sample was stored at −80° C. until used for analysis.
as §3, §4

[9] = Aggregation by HPLC size-exclusion chromatography; assay type: physicochemical
Description: Aggregation can be tested by analytical size-exclusion HPLC measuring the percentage of high molecular weight material compared to the conjugate eluting at a retention time characteristic of a monomeric conjugate.
Typically, 20 μg of protein was injected for analytical runs and 300 μg for semi-preparative runs.

HER2 [10] = biological target: T1, HER2; conditions: by mutagenesis, Schier R et al (1996); cited from earlier work
[11] = single i.v. dose 4 mg/kg, male Sprague-Dawley rats

B1: scFv (TCT1067)-P5-C5 (conjugate)
scFv: SGSGGSGQVQLVQSGAEVKKPGESLKISCKGSGYSFTSYWIAWVRQMPGKGLEYMGLIYPGDSDTKYSPSFQGQVTISVDKSVSTAYLQWSSLKPSDSAVYFCARHDVGYCTDRTCAAWPEWLGVWGQGTLVTVSSGGGGSGGGGSGGGGSQSVLTQPPSVSAAPGQKVTISCSGSSSNIGNNYVSWYQQLPGTAPKLLIYGHTNRPAGVPDRFSGSKSGTSASLAISGFRSEDEADYYCASWDYTLSGWVFGGGTKLTVLMASMTGGQQMG
- localisation in tumour sections at 2 hrs post-dosing [1]: localise throughout the tumour
- Bioavailability (blood exposure, AUC, 24 hrs) ([2]; rats, 1 × 4 mg/kg, Table 64): 90.1 μghr/ml
- Elimination half-life (hrs) Total ADC ([2]; rats, 1 × 4 mg/kg, plasma ELISA anti-payload, Table 64): 2.2085 h
- Elimination half-life (hrs) Total Antibody ([2]; rats, 1 × 4 mg/kg, Table 64): 0.512 h
- increase in bioavailability (AUC) over unmodified scFv [2, 11]: 4.5 fold
- plasma clearance (in words) [2, 11]: clears more slowly than the unmodified fragment
- stability in plasma (total antibody vs total ADC clearance lines) ([2]; single i.v. dose 4 mg/kg, rats): stable in plasma
- volume of distribution compared to unmodified scFv ([2]; single i.v. dose 4 mg/kg, rats): lower volume of distribution
- HER2 binding activity in urine collected over 24 hours (HER2 [3]): comparable binding activity
- tumour growth delay ([4]; 5 mg/kg dosing regimen): ~20 days
- tumour shrinkage compared with the trastuzumab ADC ([4]; scFv ADC dosed more frequently): more effectively
- body weight, heavier than the IgG ADC group of mice [5]: up to 20%
- tolerability from body weights (in words) [5]: better tolerated
- time stable in the buffer [6]: several months

B2: scFv (TCT1067) (protein)
scFv: SGSGGSGQVQLVQSGAEVKKPGESLKISCKGSGYSFTSYWIAWVRQMPGKGLEYMGLIYPGDSDTKYSPSFQGQVTISVDKSVSTAYLQWSSLKPSDSAVYFCARHDVGYCTDRTCAAWPEWLGVWGQGTLVTVSSGGGGSGGGGSGGGGSQSVLTQPPSVSAAPGQKVTISCSGSSSNIGNNYVSWYQQLPGTAPKLLIYGHTNRPAGVPDRFSGSKSGTSASLAISGFRSEDEADYYCASWDYTLSGWVFGGGTKLTVLMASMTGGQQMG
- association rate (HER2 [7]): 3.9e+06 M⁻¹ s⁻¹ and 3.88e+06 M⁻¹ s⁻¹
- dissociation rate (HER2 [7]): 3.7e-05 s⁻¹ and 3.69e-05 s⁻¹
- Bioavailability (blood exposure, AUC, 24 hrs) ([8]; 1 × 2 mg/kg, Table 61 (AF-C5)): 8.13 μghr/ml
- Bioavailability (blood exposure, AUC, 24 hrs) ([8]; 1 × 2 mg/kg, Table 62): 8.13 μghr/ml
- Elimination half-life (hrs) Total Antibody ([8]; 1 × 2 mg/kg, Table 61 (AF-C5)): 1.05 h
- Elimination half-life (hrs) Total Antibody ([8]; 1 × 2 mg/kg, Table 62): 1.05 h
- Bioavailability (blood exposure, AUC, 24 hrs) ([8]; 1 × 5 mg/kg, Table 57): 8.12 μghr/ml
- Elimination half-life (hrs) Total Antibody ([8]; 1 × 5 mg/kg, Table 57): 1.05 h
- plasma clearance (in words) ([8]; single i.v. dose, female BALB/c mice (5 mg/kg MMAF-C5, P5C5; 2 mg/kg AF-C5, DM1)): clears rapidly
- Bioavailability (blood exposure, AUC, 24 hrs) ([2]; rats, 1 × 4 mg/kg, Table 64): 20.46 μghr/ml
- Elimination half-life (hrs) Total Antibody ([2]; rats, 1 × 4 mg/kg, Table 64): 0.8 h
- plasma clearance (in words) [2, 11]: clears rapidly
- % aggregate by HPLC-SEC (FIG. 71) ([9]; scFv conjugation reaction with 5 molar equivalents of Auristatin F-C5 NHS (reactions 1 and 4)): 0%
- % aggregate by HPLC-SEC (FIG. 71) ([9]; scFv conjugation reaction with 10 molar equivalents of Auristatin F-C5 NHS (reactions 2 and 5)): 0%
- % aggregate by HPLC-SEC (FIG. 71) ([9]; scFv conjugation reaction with 25 molar equivalents of Auristatin F-C5 NHS (reactions 3 and 6)): 0%
- increase of binding affinity over the anti-HER2 scFv of Example 27 (HER2 [10]): over 1000 fold
